Assay results taken from article PMC10700433.
pKd: −log10 of the molar value. Each block holds one substance with its values, some of them ahead of it.

Legend:
IgG4 control antibody [1] = assay: BLI; Octet RED96; antibodies captured on FABG2 biosensor tips, recombinant Fcγ receptors in solution at suitable concentration ranges; association and dissociation at physiological pH
IgG4 control antibody [2] = assay: BLI; Octet RED96; antibodies captured on FABG2 biosensor tips, recombinant FcRn in solution; association studied at physiological pH, dissociation at pH6

mouse FcγRIV, sequence (A0A0B4J1G0 21-249): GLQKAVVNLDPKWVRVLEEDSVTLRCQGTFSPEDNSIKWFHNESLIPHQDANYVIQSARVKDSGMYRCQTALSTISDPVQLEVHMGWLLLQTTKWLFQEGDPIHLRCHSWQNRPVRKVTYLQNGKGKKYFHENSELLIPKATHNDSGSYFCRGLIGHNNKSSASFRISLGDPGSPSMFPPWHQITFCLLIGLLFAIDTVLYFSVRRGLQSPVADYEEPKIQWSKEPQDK
mouse FcγRI, sequence (P26151 25-404): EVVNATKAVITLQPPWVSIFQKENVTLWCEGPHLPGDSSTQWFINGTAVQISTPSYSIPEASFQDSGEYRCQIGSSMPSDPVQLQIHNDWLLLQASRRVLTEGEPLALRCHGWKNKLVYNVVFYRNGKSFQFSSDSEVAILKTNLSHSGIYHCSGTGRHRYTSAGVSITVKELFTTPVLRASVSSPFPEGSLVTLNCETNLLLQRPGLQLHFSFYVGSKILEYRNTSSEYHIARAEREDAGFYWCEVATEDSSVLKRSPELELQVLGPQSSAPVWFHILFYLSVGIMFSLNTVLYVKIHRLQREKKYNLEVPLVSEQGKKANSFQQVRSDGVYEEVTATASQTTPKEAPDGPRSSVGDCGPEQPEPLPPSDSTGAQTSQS
human FcRn, sequence (P55899 24-365): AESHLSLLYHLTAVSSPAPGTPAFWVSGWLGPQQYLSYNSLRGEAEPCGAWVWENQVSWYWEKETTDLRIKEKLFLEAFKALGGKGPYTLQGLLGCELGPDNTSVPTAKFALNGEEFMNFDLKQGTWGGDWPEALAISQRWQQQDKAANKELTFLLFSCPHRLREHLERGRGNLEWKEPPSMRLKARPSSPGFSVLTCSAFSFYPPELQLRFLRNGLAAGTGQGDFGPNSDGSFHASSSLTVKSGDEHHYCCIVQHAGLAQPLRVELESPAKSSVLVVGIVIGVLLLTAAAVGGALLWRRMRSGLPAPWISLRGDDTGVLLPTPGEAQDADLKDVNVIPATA
mouse FcRn, sequence (Q61559 22-365): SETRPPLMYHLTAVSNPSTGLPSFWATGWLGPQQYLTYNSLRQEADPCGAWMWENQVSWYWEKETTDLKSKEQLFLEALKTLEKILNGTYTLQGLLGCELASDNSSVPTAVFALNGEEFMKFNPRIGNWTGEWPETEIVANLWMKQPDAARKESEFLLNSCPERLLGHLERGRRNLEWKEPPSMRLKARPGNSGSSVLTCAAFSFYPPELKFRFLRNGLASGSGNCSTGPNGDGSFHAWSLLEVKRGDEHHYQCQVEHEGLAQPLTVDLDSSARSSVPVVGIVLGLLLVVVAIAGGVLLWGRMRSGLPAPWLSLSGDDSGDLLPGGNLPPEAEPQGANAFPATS

Substance: human FcγRIII 176V (from UniProt P08637 17-254) (receptor)
pKd (IgG4 control antibody [1]): 3.22

Substance: human FcRn (from UniProt P55899 24-365) (receptor)
pKd (IgG4 control antibody [2]): 6.22

Substance: mouse FcRn (from UniProt Q61559 22-365) (receptor)
pKd (IgG4 control antibody [2]): 6.70

Substance: mouse FcγRI (from UniProt P26151 25-404) (receptor)
pKd (IgG4 control antibody [1]): 6.70

Substance: human FcγRIIb (from UniProt P31994 43-310) (receptor)
pKd (IgG4 control antibody [1]): 6.22

The remaining substances from weak to strong by pKd (IgG4 control antibody [1]), led by results:

pKd (IgG4 control antibody [1]): 5.70
Substance: mouse FcγRIV (from UniProt A0A0B4J1G0 21-249) (receptor)

pKd (IgG4 control antibody [1]): 6.15
Substance: mouse FcγRIIb (from UniProt P08101 30-330) (receptor)

pKd (IgG4 control antibody [1]): 6.30
Substance: human FcγRIIa (from UniProt P12318 34-317) (receptor)

pKd (IgG4 control antibody [1]): 7.00
Substance: mouse FcγRIII (from UniProt P08508 31-261) (receptor)
